The experiment deals with mouse IL-12 (p40/p35 heterodimer) (mouse) (UniProt P43432). Description: cell-based or functional assay.
Chain of mouse IL-12 (p40/p35 heterodimer) (mouse) (P43432 23-335, chain 1 of 2): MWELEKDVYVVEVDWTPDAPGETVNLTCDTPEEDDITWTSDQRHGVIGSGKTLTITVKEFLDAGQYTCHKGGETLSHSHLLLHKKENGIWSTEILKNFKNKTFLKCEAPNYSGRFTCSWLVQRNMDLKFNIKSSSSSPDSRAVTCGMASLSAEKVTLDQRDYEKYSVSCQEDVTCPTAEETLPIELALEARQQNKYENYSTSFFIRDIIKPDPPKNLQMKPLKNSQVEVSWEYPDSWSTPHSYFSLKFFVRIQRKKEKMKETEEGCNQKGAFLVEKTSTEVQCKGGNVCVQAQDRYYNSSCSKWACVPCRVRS
Chain of mouse IL-12 (p40/p35 heterodimer) (mouse) (P43431 23-215, chain 2 of 2, further chain): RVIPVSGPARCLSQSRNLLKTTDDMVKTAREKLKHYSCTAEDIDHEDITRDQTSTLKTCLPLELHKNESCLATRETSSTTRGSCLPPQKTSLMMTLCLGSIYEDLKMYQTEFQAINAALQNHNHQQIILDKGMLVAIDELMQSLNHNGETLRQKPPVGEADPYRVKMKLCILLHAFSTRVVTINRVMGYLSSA

“C17.8 (rat anti-mouse IL-12/IL-23p40, IgG2a) (antibody)” returned an in vitro neutralization of IL-12 (times (against the anti-p35 mAb)) of 5.

The record behind these values is US20090202549A1.
